The record followed here is patent publication US12649925B2, “Tissue-specific expression and hybrid plant production” (Dow AgroSciences LLC, priority 2013, dated 2026).

Changes are numbered by the printed parent chain.

The subject of series [1] is Maize Immature Embryos. The series can be described thus: Transient AAD1 expression in immature embryos after particle bombardment, ELISA. The following applies: 24 hours after particle bombardment; co-bombardment plasmid pDAB112378 (artificial miRNA). The class given is cell-based, Zea mays. The source says:
Zea mays embryos from inbred line B104 that express AAD1 mRNAs having miRNA target sites within the mRNA were produced. Control tissues having no miRNA target sites in the AAD1 mRNA, or having no AAD1 gene expression cassette, were also produced. Other control tissues were produced that had only a YFP gene expression cassette (and no AAD1 construct). Preparations of plant transformation DNA molecules constructed as described in EXAMPLE 2 were delivered into maize B104 immature embryos via particle bombardment transformation.
Plasmid DNAs of pDAB112375, pDAB112376, pDAB112377, pDAB113016, pDAB100286, pDAB112378 and pDAB112330 were isolated and purified from Escherichia coli by standard techniques, and diluted in TE buffer (10 mM Tris HCl plus 1 mM EDTA, pH 8) to 1.0 μg/μL.
Embryo isolation and culture: (Day 1) Surface-sterilized B104 immature ears (10 to 12 days post-pollination) were used for the isolation of embryos. Excised immature embryos from 3 to 4 ears were pooled into 2 mL microfuge tubes containing 2.0 mL liquid medium (LS basal medium (Linsmaier and Skoog, (1965) Physiologia Plantarum 18:100-27) containing CHU N6 vitamins (Chu et al. (1975) Scientia Sinica 18:659-68), 700 mg/L L-Proline, 68.5 gm/L sucrose, 36 gm/L D(+) glucose, and 1.5 mg/L 2,4-D). After embryo isolation, the liquid medium was removed and discarded. Embryos were removed and placed onto plates (40 embryos per plate) containing a semi-solid osmotic medium (MS basal medium (Murashige and Skoog, (1962) Physiologia Plantarum 15:473-497), 2 mg/L Glycine, 500 μg/L Thiamine, 500 μg/L Pyroxidine, 50 μg/L Nicotinic Acid., 120 gm/L sucrose, 100 mg/L myo-inositol, and 2.4 gm/L GELRITE). The embryos were arranged in a […] within the target area for particle bombardment. Three replicate plates were prepared for each construct to be tested. All plates were incubated at 28° C. under continuous low light (50 μEm^−2 sec^−1) for 24 hours prior to particle bombardment.
Coating gold particles with DNA: (Day 2) Tubes of frozen gold particles glycerol stock were thawed on ice for a few minutes, then vortexed for 2 minutes at high speed until a uniform gold suspension was produced. Gold suspension was pipetted into sterile microcentrifuge tubes (50 μL each), with an intermediate vortexing of the particle stock between each tube to maintain a uniform suspension. 2.5 μg each of appropriate plasmid DNAs were included. […]
ELISA quantification of AAD1 and PAT proteins: Enzyme Linked Immunosorbant Assays (ELISAs) were used to measure the production of AAD1 and PAT proteins in maize cells and stably-transformed tissues. […]

Series [2] concerns Maize Immature Embryos. The series can be described thus: Selection of Agrobacterium-transformed immature embryos on herbicide-containing medium. The class given is cell-based, Zea mays. The following applies: Selection Medium I containing 100 nM R-Haloxyfop acid. The source says:
Agrobacterium-mediated transformation was used to stably integrate a chimeric gene into the plant genome, and thus generate transgenic maize cells, tissues, and plants that produce AAD1 mRNAs having miRNA target sites within the mRNA. Control tissues having no miRNA target sites in the AAD1 mRNA were also produced. Transformed tissues were selected by their ability to grow on Haloxyfop-or Bialaphos-containing medium.
Callus Selection and Regeneration of Transgenic Events: Following the co-cultivation period, embryos were transferred to Resting Medium (4.33 g/L MS salts; 1× ISU Modified MS Vitamins; 30 g/L sucrose; 700 mg/L L-proline; 3.3 mg/L Dicamba in KOH; 100 mg/L myo-inositol; 100 mg/L Casein Enzymatic Hydrolysate; 15 mg/L AgNO3; 0.5 g/L MES (2-(N-morpholino) ethanesulfonic acid monohydrate; PHYTOTECHNOLOGIES LABR.; Lenexa, K S); 250 mg/L Cefotaxime; and 7.0 gm/L agar; at pH 5.8). No more than 36 embryos were moved to each plate. The plates were wrapped with Micropore™ tape and incubated at 27° C. with continuous light at approximately 50 μmol m^−2s^−1 light intensity for 7 to 10 days. […]

B1: pDAB112377: Transient construct: ZmUbilv2/AAD1 v3/miR529 perfect target site with miR156 site mutated/ZmPer5 3′UTR (SEQ ID NO:10) (nucleic acid)
DNA: ATGGCTCATGCTGCCCTCAGCCCTCTCTCCCAACGCTTTGAGAGAATAGCTGTCCAGCCACTCACTGGTGTCCTTGGTGCTGAGATCACTGGAGTGGACTTGAGGGAACCACTTGATGACAGCACCTGGAATGAGATATTGGATGCCTTCCACACTTACCAAGTCATCTACTTTCCTGGCCAAGCAATCACCAATGAGCAGCACATTGCATTCTCAAGAAGGTTTGGACCAGTTGATCCAGTGCCTCTTCTCAAGAGCATTGAAGGCTATCCAGAGGTTCAGATGATCCGCAGAGAAGCCAATGAGTCTGGAAGGGTGATTGGTGATGACTGGCACACAGACTCCACTTTCCTTGATGCACCTCCAGCTGCTGTTGTGATGAGGGCCATAGATGTTCCTGAGCATGGCGGAGACACTGGGTTCCTTTCAATGTACACAGCTTGGGAGACCTTGTCTCCAACCATGCAAGCCACCATCGAAGGGCTCAACGTTGTGCACTCTGCCACACGTGTGTTCGGTTCCCTCTACCAAGCACAGAACCGTCGCTTCAGCAACACCTCAGTCAAGGTGATGGATGTTGATGCTGGTGACAGAGAGACAGTCCATCCCTTGGTTGTGACTCATCCTGGCTCTGGAAGGAAAGGCCTTTATGTGAATCAAGTCTACTGTCAGAGAATTGAGGGCATGACAGATGCAGAATCAAAGCCATTGCTTCAGTTCCTCTATGAGCATGCCACCAGATTTGACTTCACTTGCCGTGTGAGGTGGAAGAAAGACCAAGTCCTTGTCTGGGACAACTTGTGCACCATGCACCGTGCTGTTCCTGACTATGCTGGCAAGTTCAGATACTTGACTCGCACCACAGTTGGTGGAGTTAGGCCTGCCCGCTGAGTAGTTAGCTTAATCACCTAGAGCTCGACTCAGGCTGTACTCTCTCTCTTCACAAAGTACTCAGGTAACCTTTAAACTGAGGGCACTGAAGTCGCTTGATGTGCTGAATTGTTTGTGATGTTGGTGGCGTATTTTGTTTAAATAAGTAAGCATGGCTGTGATTTTATCATATGATCGATCTTTGGGGTTTTATTTAACACATTGTAAAATGTGTATCTATTAATAACTCAATGTATAAGATGTGTTCATTCTTCGGTTGCCATAGATCTGCTTATTTGACCTGTGATGTTTTGACTCCAAAAACCAAAATCACAACTCAATAAACTCATGGAATATGTCCACCTGTTTCTTGAAGAGTTCATCTACCATTCCAGTTGGCATTTATCAGTGTTGCAGCGGCGCTGTGCTTTGTAACATAACAATTGTTACGGCATATATCCAA
modifications: expression cassette; (969)..(1333) ZmPer5 3′UTR
Turning to B1, in the series on Maize Immature Embryos [1], the “Mean AAD1 Amount” value was found to be 249 ng/mL. The “fate of transformed embryos on Haloxyfop-containing medium” value in the series on Maize Immature Embryos [2] is “grew on Haloxyfop-containing medium and regenerated transgenic plants”.

B2: pDAB112376: Transient construct: ZmUbilv2/AAD1 v3/WT miR529 target site with miR156 site mutated/ZmPer5 3′UTR (SEQ ID NO:9) (nucleic acid)
DNA: B1 DNA with C937T, T938A
modifications: pDAB112377 expression cassette; (918)..(954) modified tsh4 target site; (969)..(1333) ZmPer5 3′UTR
Consider B2, for which the “Mean AAD1 Amount” value in the series with Maize Immature Embryos [1] is reported as 317 ng/mL. For the same molecule, the “fate of transformed embryos on Haloxyfop-containing medium” value in the series on Maize Immature Embryos [2] is “grew on Haloxyfop-containing medium and regenerated transgenic plants”.
